Experimental findings from PMC12823420 are described below.

The target in series [1] is UAP56 (Homo sapiens, UniProt Q13838 1-428). As to the kind of experiment: GCI; 1 mM ATP; RNA immobilized; GCI: 25 mM HEPES pH 7.9, 50 mM KCl, 1 mM MgCl2, 1 mM TCEP, 1 mM ATP, 25 C; AdML pull-down: 20 mM HEPES pH 7.9, 100 mM KCl, 2 mM MgCl2, 5% glycerol, 0.1% Igepal, 1 mM AMP-PNP, RT; unclamping: same with 40 mM KCl, 500 mM KCl washes. The settings on record: protein: recombinant; otherwise unlabelled; single strand.

Series [2] deals with UAP56-UCM-1 fusion (Homo sapiens, UniProt Q13838 1-428+P82979:82-115, internal_change). The description is as above. To be noted: protein: recombinant; tags: 10xHis; otherwise unlabelled; single strand.

B1: 15U RNA (ssRNA)
RNA: UUUUUUUUUUUUUUU
As usually defined, the Kd is the constant that tells how readily two partners part at equilibrium. On to B1, for which the Kd in series [1] was 780 ± 90 nM; in series [2] it was 270 ± 60 nM.
